According to US20210340270A1 (Amgen, published 2021):

Legend:
[1] = target: T1, recombinant human Jagged1 extracellular domain (Met 1-Ser 1046), fused with a polyhistidine tag at the … (human, UniProt P78504 34-1046); assay: Octet Red96 BLI; mAb captured on AHC anti-HuFc biosensors, soluble hJagged1 as analyte; mean of 3 experiments
T1 construct: Bought protein; also called hJagged1; soluble recombinant hJagged1; not shown: C-terminal polyhistidine tag
Method: (§1) The affinity of the soluble recombinant hJagged1 was determined in Octet platform (Octet Red96) under the manufactures recommended kinetic measurement settings. Briefly, hJagged1 was diluted 1 to 3 from 150 nM to 0.5 nM in Octet buffer (10 mM Tris base, 150 mM NaCl, 1 mM CaCl2, 0.1 mg/ml BSA, 0.1% Triton X100) and 60 ul of this serial diluted samples were taken in 384 well tilted bottom (TW384) black polypropylene microplate (Forte Bio, Cat #18-0019) (sample plate). 3 ug/ml of anti-hJagged1 mAb 15D11.1 present in 60 ul in sample plate was used and captured on AHC—anti-HuFc (Kinetic) biosensors (cat #18-5060). A sample with buffer alone is used as a control.

[2] = target: T2, Recombinant Human Jagged 1 Fc chimera (R&D Systems Cat #: 1277-M-050) (human, UniProt P78504 32-1046); assay: ELISA, 1 ug/ml ligand coated on the plate, 15D11.1 titrated, absorbance 450 nm; single experiment shown (the text prints only a mean of n = 3)
T2 construct: also called hJAG1 Fc; not shown: Fc part and any linker of the bought chimera not described
Method: 15D11.1 was tested for binding to recombinant purified Notch ligands; human Jagged1 Fc (Recombinant Human Jagged 1 Fc chimera—R&D Systems Cat #: 1277-M-050), human Jagged1 His (Human JAG1/Jagged1 His Tag Sino Biological Cat #: 11648-H08H), rat Jagged1 Fc (Recombinant Rat Jagged 1 Fc chimera—R&D Systems—Cat #: 599-JG-050), human Jagged2 (Recombinant Human Jagged 2 Fc chimera—R&D Systems Cat #: 1726-JG-050), murine Jagged2 (Recombinant Mouse Jagged 2 Fc chimera—R&D Systems Cat #: 4748-JG-050), murine Delta-like 1 (Recombinant Mouse DLL1 His tag—Sino Biological Cat #: 50522-M08H-50), human Deltalike 4 (Recombinant Human DLL4 His tag—R&D Systems—Cat #: 1506-D4-050) and murine Deltalike 4 (Recombinant Mouse DLL4 His tag—R&D Systems—Cat #: 1389-D4-050) using a standard enzyme-linked immunosorbent assay (ELISA). […]
(§2) in PBST buffer (PBT buffer (PBS+0.05% (v/v) Tween 20) with 0.5% (w/v) BSA) were added to the plates and incubated for one hour at room temperature. The plates were then washed with PBST and bound antibodies were detected with peroxidase-conjugated goat anti-human Fab specific IgG (Sigma). TMB substrate (3,3′,5,5′-tetramethylbenzidine) was used and absorbance at 450 nm was read using a standard ELISA plate reader. Absorbance was plotted against concentrations of 15D11.1 in FIGS. 8A and 8B.

[3] = target: human and rat Jagged-1 (recombinant purified Notch ligands in the ELISA); assay: direct binding ELISA on recombinant purified Notch ligands
[4] = target: murine Jagged-1 stably expressed on 293T cells (mouse, UniProt Q9QXX0 34-1218); assay: cell-based or functional assay
[5] = target: human Jagged-1 expressed on transfected 293 / 293T cells (human, UniProt P78504 34-1218); assay: cell-based or functional assay
[6] = target: T3, Human JAG1/Jagged1 His Tag (Sino Biological Cat #: 11648-H08H) (human, UniProt P78504 34-1046); assay: direct binding ELISA; 1 ug/ml ligand coated, antibody titrated, anti-human Fab-HRP detection (printed as IC50)
T3 construct: also called human Jagged1 His; hJAG1 His; not shown: His tag
Method: (§3) 15D11.1 was tested for binding to recombinant purified Notch ligands; human Jagged1 Fc (Recombinant Human Jagged 1 Fc chimera—R&D Systems Cat #: 1277-M-050), human Jagged1 His (Human JAG1/Jagged1 His Tag Sino Biological Cat #: 11648-H08H), rat Jagged1 Fc (Recombinant Rat Jagged 1 Fc chimera—R&D Systems—Cat #: 599-JG-050), human Jagged2 (Recombinant Human Jagged 2 Fc chimera—R&D Systems Cat #: 1726-JG-050), murine Jagged2 (Recombinant Mouse Jagged 2 Fc chimera—R&D Systems Cat #: 4748-JG-050), murine Delta-like 1 (Recombinant Mouse DLL1 His tag—Sino Biological Cat #: 50522-M08H-50), human Deltalike 4 (Recombinant Human DLL4 His tag—R&D Systems—Cat #: 1506-D4-050) and murine Deltalike 4 (Recombinant Mouse DLL4 His tag—R&D Systems—Cat #: 1389-D4-050) using a standard enzyme-linked immunosorbent assay (ELISA). 1 ug/ml of Notch ligand protein (as indicated) in PBS, pH7.4, was coated onto ELISA plates (Nunc Maxisorp) at 4° C. overnight. Plates were blocked with Casein blocker in PBS (Pierce) for one hour at room temperature. Serial 2-fold dilutions of 15D11.1
as §2

[7] = target: T4, Recombinant Rat Jagged 1 Fc chimera (R&D Systems Cat #: 599-JG-050) (rat, UniProt Q63722 32-1046); assay: as above
T4 construct: Bought construct; also called rJAG1; not shown: Fc part and any linker of the bought chimera not described
Method: as §3, §2

[8] = target: T2, Recombinant Human Jagged 1 Fc chimera …; assay: as above
Method: as §3, §2

[9] = target: T1, recombinant human Jagged1 extracellular …; assay: Octet Red96 BLI; mAb captured on AHC anti-HuFc biosensors, soluble hJagged1 as analyte; mean of 3 experiments (same KD as r8c2, in nM)
Method: as §1

[10] = target: T5, Recombinant Mouse Jagged 2 Fc chimera (R&D Systems Cat #: 4748-JG-050) (mouse, UniProt Q9QYE5 27-1082); assay: ELISA, 1 ug/ml ligand coated on the plate, 15D11.1 titrated, absorbance 450 nm
T5 construct: Bought construct; also called murine Jagged2; not shown: Fc part and any linker of the bought chimera not described
Method: as §3, §2

[11] = target: T6, Recombinant Human Jagged 2 Fc chimera (R&D Systems Cat #: 1726-JG-050) (human, UniProt Q9Y219 27-1080); assay: as above
T6 construct: Bought construct; not shown: Fc part and any linker of the bought chimera not described
Method: as §3, §2

[12] = target: T7, Recombinant Human DLL4 His tag (R&D Systems Cat #: 1506-D4-050) (human, UniProt Q9NR61 27-524); assay: as above
T7 construct: Bought construct; also called human Deltalike 4; not shown: His tag
Method: as §3, §2

[13] = target: T8, Recombinant Mouse DLL4 His tag (R&D Systems Cat #: 1389-D4-050) (mouse, UniProt Q9JI71 28-525); assay: as above
T8 construct: Bought construct; also called murine Deltalike 4; not shown: His tag
Method: as §3, §2

[14] = target: T9, Recombinant Mouse DLL1 His tag (Sino Biological Cat #: 50522-M08H-50) (mouse, UniProt Q61483 18-540); assay: as above
T9 construct: Bought construct; also called murine Delta-like 1; not shown: His tag
Method: as §3, §2

Sequence of human Jagged-1 expressed on transfected 293 / 293T cells (P78504 34-1218 P227R/N498D limits assumed): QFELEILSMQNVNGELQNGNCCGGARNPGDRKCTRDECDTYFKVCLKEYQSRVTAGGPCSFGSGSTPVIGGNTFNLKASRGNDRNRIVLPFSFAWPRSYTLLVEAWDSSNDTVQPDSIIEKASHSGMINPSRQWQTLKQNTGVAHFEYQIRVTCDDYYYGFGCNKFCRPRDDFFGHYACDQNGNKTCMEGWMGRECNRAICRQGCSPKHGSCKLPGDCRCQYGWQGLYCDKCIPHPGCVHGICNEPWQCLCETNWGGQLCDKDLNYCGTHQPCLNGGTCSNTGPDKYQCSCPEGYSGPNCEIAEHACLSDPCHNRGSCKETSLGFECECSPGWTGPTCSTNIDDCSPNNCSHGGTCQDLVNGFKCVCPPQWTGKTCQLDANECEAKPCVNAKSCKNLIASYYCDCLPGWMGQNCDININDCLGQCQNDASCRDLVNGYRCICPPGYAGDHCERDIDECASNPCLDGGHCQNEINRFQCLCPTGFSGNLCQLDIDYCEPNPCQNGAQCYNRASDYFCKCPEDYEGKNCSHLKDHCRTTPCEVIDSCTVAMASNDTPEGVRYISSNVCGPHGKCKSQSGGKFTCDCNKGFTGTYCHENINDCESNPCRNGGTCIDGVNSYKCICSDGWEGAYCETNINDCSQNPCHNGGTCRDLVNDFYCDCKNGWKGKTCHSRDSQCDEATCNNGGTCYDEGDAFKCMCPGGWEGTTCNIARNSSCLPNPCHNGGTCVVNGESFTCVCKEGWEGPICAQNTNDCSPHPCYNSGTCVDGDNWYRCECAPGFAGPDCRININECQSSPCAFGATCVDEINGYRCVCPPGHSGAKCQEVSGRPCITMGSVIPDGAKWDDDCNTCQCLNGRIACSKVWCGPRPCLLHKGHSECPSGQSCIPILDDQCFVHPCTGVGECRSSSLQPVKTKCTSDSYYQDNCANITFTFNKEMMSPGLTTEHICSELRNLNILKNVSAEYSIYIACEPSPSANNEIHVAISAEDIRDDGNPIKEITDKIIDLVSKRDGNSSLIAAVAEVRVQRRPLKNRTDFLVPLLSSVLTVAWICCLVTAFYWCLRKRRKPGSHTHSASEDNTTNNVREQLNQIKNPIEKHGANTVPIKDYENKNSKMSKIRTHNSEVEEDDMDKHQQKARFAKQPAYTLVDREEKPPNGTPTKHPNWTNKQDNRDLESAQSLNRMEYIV
Sequence of murine Jagged-1 stably expressed on 293T cells (Q9QXX0 34-1218): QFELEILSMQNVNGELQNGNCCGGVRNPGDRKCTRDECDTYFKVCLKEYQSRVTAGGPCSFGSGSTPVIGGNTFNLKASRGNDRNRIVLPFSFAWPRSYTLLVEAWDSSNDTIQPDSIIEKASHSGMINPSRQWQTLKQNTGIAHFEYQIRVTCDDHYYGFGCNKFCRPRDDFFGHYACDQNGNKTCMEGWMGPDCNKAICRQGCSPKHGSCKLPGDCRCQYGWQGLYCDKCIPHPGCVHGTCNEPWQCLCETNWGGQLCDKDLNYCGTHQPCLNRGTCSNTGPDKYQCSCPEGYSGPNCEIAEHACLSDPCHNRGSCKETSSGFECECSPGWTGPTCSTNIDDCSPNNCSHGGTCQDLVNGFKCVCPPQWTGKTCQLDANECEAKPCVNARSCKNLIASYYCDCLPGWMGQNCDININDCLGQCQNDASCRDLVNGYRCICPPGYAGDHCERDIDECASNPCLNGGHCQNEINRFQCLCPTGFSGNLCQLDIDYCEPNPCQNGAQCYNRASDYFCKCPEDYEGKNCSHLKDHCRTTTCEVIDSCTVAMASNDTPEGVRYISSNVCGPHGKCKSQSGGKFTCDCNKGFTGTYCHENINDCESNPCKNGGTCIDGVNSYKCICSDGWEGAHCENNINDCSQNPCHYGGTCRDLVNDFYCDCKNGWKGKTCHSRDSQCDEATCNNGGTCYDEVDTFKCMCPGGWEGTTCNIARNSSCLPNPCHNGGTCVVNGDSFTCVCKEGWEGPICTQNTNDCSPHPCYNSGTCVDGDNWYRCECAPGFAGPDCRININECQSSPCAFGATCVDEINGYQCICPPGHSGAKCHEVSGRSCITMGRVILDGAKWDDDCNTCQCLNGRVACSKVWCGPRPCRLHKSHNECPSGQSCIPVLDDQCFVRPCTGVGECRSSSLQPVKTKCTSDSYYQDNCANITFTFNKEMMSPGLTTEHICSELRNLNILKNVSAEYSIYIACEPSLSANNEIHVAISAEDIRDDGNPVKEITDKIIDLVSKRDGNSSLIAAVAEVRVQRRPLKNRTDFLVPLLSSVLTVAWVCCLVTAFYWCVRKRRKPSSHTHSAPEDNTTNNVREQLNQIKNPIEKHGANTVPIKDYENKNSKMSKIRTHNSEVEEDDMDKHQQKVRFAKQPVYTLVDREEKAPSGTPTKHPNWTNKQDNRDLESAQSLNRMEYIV
T8 sequence (Q9JI71 28-525 limits assumed): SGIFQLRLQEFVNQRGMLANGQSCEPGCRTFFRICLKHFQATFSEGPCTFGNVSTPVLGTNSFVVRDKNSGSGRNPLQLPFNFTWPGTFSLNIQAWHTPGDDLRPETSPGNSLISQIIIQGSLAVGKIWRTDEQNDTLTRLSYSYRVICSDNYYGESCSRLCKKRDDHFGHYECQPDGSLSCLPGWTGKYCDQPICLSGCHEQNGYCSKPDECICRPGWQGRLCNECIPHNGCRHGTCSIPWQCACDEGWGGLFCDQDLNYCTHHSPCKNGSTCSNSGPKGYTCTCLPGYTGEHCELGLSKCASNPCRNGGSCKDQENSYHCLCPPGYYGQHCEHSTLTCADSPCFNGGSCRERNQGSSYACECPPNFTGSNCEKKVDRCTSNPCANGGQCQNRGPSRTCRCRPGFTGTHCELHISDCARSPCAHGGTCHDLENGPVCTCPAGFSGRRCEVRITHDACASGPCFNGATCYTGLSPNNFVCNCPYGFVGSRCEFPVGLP
T7 sequence (Q9NR61 27-524 limits assumed): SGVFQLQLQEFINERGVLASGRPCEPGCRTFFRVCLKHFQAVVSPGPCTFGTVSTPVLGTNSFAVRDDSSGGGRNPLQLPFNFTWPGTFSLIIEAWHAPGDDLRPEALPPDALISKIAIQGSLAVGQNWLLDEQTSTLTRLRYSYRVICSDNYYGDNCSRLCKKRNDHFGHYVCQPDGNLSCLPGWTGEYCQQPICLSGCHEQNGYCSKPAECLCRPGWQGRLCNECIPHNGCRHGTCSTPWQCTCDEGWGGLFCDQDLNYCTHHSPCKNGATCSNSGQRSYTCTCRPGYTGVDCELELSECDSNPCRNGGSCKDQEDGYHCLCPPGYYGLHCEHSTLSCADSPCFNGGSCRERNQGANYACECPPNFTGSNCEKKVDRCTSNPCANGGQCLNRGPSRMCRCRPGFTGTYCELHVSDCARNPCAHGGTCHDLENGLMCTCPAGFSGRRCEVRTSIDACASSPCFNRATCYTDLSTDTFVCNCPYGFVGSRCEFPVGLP
T5 sequence (Q9QYE5 27-1082, change not shown): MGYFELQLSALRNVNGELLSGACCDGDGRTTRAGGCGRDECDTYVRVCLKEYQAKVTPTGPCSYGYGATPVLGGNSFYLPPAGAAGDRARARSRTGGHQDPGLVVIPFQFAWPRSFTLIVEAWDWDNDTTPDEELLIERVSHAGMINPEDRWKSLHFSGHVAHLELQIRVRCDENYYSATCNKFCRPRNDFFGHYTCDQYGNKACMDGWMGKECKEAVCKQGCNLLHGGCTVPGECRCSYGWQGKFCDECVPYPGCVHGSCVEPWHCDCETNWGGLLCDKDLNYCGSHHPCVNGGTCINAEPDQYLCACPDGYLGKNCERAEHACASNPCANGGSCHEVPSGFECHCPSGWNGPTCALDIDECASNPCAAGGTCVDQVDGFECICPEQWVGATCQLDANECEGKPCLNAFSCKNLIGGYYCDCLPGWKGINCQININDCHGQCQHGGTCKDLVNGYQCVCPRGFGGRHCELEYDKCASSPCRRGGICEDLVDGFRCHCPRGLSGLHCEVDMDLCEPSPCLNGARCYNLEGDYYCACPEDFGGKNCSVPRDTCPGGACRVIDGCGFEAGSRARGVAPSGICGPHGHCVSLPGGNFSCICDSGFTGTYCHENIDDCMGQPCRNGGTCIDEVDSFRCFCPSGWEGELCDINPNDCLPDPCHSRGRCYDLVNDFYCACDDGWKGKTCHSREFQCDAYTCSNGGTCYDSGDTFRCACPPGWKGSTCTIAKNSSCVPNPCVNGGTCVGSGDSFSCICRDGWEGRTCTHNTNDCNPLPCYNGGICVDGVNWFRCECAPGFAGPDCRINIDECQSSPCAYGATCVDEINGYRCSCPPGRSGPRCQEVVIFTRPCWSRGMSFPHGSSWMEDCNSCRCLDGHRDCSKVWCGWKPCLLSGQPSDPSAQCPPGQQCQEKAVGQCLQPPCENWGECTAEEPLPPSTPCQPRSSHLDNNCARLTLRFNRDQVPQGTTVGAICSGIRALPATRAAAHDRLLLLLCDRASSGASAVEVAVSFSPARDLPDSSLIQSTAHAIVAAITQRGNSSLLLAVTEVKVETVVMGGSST
T9 sequence (Q61483 18-540 limits assumed, stated change not applied): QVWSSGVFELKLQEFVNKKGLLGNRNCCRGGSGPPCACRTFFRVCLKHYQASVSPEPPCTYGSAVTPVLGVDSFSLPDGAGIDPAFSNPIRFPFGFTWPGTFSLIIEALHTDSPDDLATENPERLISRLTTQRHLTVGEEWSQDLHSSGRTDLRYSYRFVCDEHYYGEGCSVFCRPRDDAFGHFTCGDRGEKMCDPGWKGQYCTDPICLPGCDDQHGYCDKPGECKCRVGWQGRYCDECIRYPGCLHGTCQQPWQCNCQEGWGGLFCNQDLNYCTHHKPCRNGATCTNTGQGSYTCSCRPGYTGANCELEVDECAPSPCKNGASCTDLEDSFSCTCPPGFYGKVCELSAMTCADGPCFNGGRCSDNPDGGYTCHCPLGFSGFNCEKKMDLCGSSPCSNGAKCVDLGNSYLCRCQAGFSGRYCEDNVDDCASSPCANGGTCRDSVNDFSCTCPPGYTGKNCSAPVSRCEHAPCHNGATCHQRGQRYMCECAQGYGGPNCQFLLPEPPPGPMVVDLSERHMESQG

B1: anti-hJagged1 mAb 15D11.1 (antibody, V domains shown)
VH: QVTLKESGPVLVKPTETLTLTCTVSGFSLSNAEMGVSWIRQPPGKALEWLAHLFSNDEKSYSTSLKSRLTISKDTSKSQVVLTMTDLDPVDTATYYCARSFNWNYDFDYWGQGTLVTVSS
VL: QSALTQPASVSGSPGQSITISCTGTSSAVGGHNFVSWYQQYPGKAPKLMIYEVSNRPSGVSTRFSGSKSGNTASLTISGLQAEDEADYYCSSYTSSSTWVFGGGTRLTVL
notes: Fully human monoclonal antibody from XenoMouse (XMG2-KL / XMG4-KL) hybridomas; also called iPS:480499; anti-Jag-1 15D11.1
For B1, the koff [1] was 0.000189 s⁻¹, the kon [1] was 331000 M⁻¹ s⁻¹ and the “EC50 (read off the curve)” value [2] was about 0.4 nM. The IC50 [3] was 0.3 to 0.9 nM, the “IC50, murine Jagged-1 induced murine Notch1 activation co-culture assay (7xCSL firefly luciferase reporter in 293T/murine Notch1 cells)” value [4] was 7.72 nM and the “avg IC50, murine Jagged-1 induced murine Notch1 activation co-culture assay (7xCSL firefly luciferase reporter in 293T/murine Notch1 cells)” value [4] was 9 nM. The “IC50, human Jagged-1 induced human Notch2 activation co-culture assay (12xCSL firefly luciferase reporter in SK-MEL-28 cells)” value [5] was 1.69 nM, the “avg IC50, human Jagged-1 induced human Notch2 activation co-culture assay (12xCSL firefly luciferase reporter in SK-MEL-28 cells)” value [5] was 2.31 nM and the IC50 [6] was 0.39 nM. For the same binder, the IC50 [7] was 0.51 nM, the IC50 [8] was 0.8 nM and the Kd [9] was 0.61 nM. B1: no binding (tested: about log 1.8 nM (about 60 nM)) [10]; no binding (tested: about log 1.8 nM (about 60 nM)) [11]; no binding (tested: about log 1.8 nM (about 60 nM)) [12]. B1: no binding (tested: about log 1.8 nM (about 60 nM)) [13]; no binding (tested: about log 1.8 nM (about 60 nM)) [14].
